The assay relates to leaves of N. benthamiana plants. Nature of the assay: Transient expression of coumarin transporter in N. benthamiana leaves, coumarins in leaf wash water / leaves by HPLC. It counts as in vivo. Here is the method:
Droplets of double-distilled water (30 μl) were evenly distributed on the surface of detached leaves placed in a petri dish (approx. 40 droplets on sunflower, 20 droplets on N. benthamiana). Samples were kept at RT for 24 h at high humidity. Subsequently, droplets were carefully collected without touching the leaf surface, filtered and used for HPLC analysis or germination assays.
For transient in planta overexpression assays cDNA sequences of GOIs were cloned in the plant overexpression vector pB7WG2D13 using the Gateway® cloning technology. Similar cloning steps are performed to generate transient in-planta overexpression constructs for any of the other coumarin transporter proteins A0A251U1Q8_HELAN, A0A5N6LHL1_9ASTR, A0A 1I9L1U9_ARTAN, A0A2J6KQ56_LACSA and A0A2G2ZJV1_CAPAN with A0A1S3XDP1_TOBAC as control. […]
Coumarin methanol extracts were centrifuged for 10 min at 21,000 rcf and 70 μl of the supernatant were separated via HPLC on a reverse phase C18 column (KROMAPLUS 100-5-C18 5.0, Prontosil). ddH2O and acetonitrile, both containing 1.5% (v/v) acetic acid, were used as solvents. […] Coumarin fluorescence was detected at λ=335 nm excitation and λ=460 nm emission (FP 920 Intelligent Fluorescence Detector, Jasco) or at λ=342 nm (UV absorbance). […] For quantification, a standard curve of commercial standards with known concentrations was measured.

B1: AtPDR9: already published Arabidopsis thaliana coumarin transporter, used as control (protein, UniProt Q9LFH0 1-1450, looked up)
ABC transporter G family …: MAHMVGADDIESLRVELAEIGRSIRSSFRRHTSSFRSSSSIYEVENDGDVNDHDAEYALQWAEIERLPTVKRMRSTLLDDGDESMTEKGRRVVDVTKLGAVERHLMIEKLIKHIENDNLKLLKKIRRRIDRVGMELPTIEVRYESLKVVAECEVVEGKALPTLWNTAKRVLSELVKLTGAKTHEAKINIINDVNGIIKPGRLTLLLGPPSCGKTTLLKALSGNLENNLKCSGEISYNGHRLDEFVPQKTSAYISQYDLHIAEMTVRETVDFSARCQGVGSRTDIMMEVSKREKEKGIIPDTEVDAYMKAISVEGLQRSLQTDYILKILGLDICAEILIGDVMRRGISGGQKKRLTTAEMIVGPTKALFMDEITNGLDSSTAFQIVKSLQQFAHISSATVLVSLLQPAPESYDLFDDIMLMAKGRIVYHGPRGEVLNFFEDCGFRCPERKGVADFLQEVISKKDQAQYWWHEDLPYSFVSVEMLSKKFKDLSIGKKIEDTLSKPYDRSKSHKDALSFSVYSLPNWELFIACISREYLLMKRNYFVYIFKTAQLVMAAFITMTVFIRTRMGIDIIHGNSYMSALFFALIILLVDGFPELSMTAQRLAVFYKQKQLCFYPAWAYAIPATVLKVPLSFFESLVWTCLSYYVIGYTPEASRFFKQFILLFAVHFTSISMFRCLAAIFQTVVASITAGSFGILFTFVFAGFVIPPPSMPAWLKWGFWANPLSYGEIGLSVNEFLAPRWNQMQPNNFTLGRTILQTRGMDYNGYMYWVSLCALLGFTVLFNIIFTLALTFLKSPTSSRAMISQDKLSELQGTEKSTEDSSVRKKTTDSPVKTEEEDKMVLPFKPLTVTFQDLNYFVDMPVEMRDQGYDQKKLQLLSDITGAFRPGILTALMGVSGAGKTTLLDVLAGRKTSGYIEGDIRISGFPKVQETFARVSGYCEQTDIHSPNITVEESVIYSAWLRLAPEIDATTKTKFVKQVLETIELDEIKDSLVGVTGVSGLSTEQRKRLTIAVELVANPSIIFMDEPTTGLDARAAAIVMRAVKNVADTGRTIVCTIHQPSIDIFEAFDELVLLKRGGRMIYTGPLGQHSRHIIEYFESVPEIPKIKDNHNPATWMLDVSSQSVEIELGVDFAKIYHDSALYKRNSELVKQLSQPDSGSSDIQFKRTFAQSWWGQFKSILWKMNLSYWRSPSYNLMRMMHTLVSSLIFGALFWKQGQNLDTQQSMFTVFGAIYGLVLFLGINNCASALQYFETERNVMYRERFAGMYSATAYALGQVVTEIPYIFIQAAEFVIVTYPMIGFYPSAYKVFWSLYSMFCSLLTFNYLAMFLVSITPNFMVAAILQSLFYVGFNLFSGFLIPQTQVPGWWIWLYYLTPTSWTLNGFISSQYGDIHEEINVFGQSTTVARFLKDYFGFHHDLLAVTAVVQIAFPIALASMFAFFVGKLNFQRR
In the case of B1, the “Scopoletin content in leaf wash water (LWW)” value (transporter transiently coexpressed with F6'H1, versus biosynthesis gene without transporter) is recorded as “no increased coumarin secretion”. In addition, for the setting “transporter transiently coexpressed with F6'H1 plus OMT3, versus biosynthesis genes without transporter”, the “Scoparone content in leaf wash water (LWW)” value is recorded as “no increased coumarin secretion”.
